This note sets out measurements from patent US20140322242A1, “MATERIALS AND METHODS FOR THE PREVENTION AND TREATMENT OF CANCER” (Icahn School of Medicine at Mount Sinai, priority 2010, published 2014).

Assay [1] concerns prostate cancer in cMyc mice. The experiment in a line: cMyc transgenic mouse model of prostate cancer (mPIN, invasive cancer zones). Format: in vivo. Conditions: G-CSF; 11 weeks of age. How it is done:
To investigate further the activity of G-CSF on tumor development using a genetic mouse model, transgenic mice expressing human cMyc under the ARR2/probasin promoter expressed specifically in the prostate (hereafter cMyc mice) were evaluated. This transgenic model leads to the complete penetrance of mouse prostatic intraepithelial neoplasia (mPIN) from postnatal week 2, progressing to invasive adenocarcinomas between 3 to 6 months of age (FIG. 2m). […] The development of invasive cancer was associated with a broad infiltration of NF-L+ neo-fibers by comparison with control animals (FIG. 2o). Thus, the increased tumor/normal epithelial cell proliferation following G-CSF administration is associated with (i.e., is correlated to) the development of new nerve fibers in the primary tumor. Accordingly, a method of treating cancer in a subject such as a human patient or non-human animal (e.g., non-human mammal) comprises administering a prophylactically or therapeutically effective amount of an inhibitor of NF-L+ neo-fibers. In some embodiments, the method comprises administering a prophylactically or therapeutically effective amount of an inhibitor of G-CSF.
(§1) Human tumors were induced by orthotopic surgical implantations of 1×10^5 PC-3luc cells into six- to eight-week-old Balb/c nu/nu mice. Ten days after cell injection (day 0), the animals were randomized into the different groups and received the appropriate drugs, as indicated. 6OHDA or vehicle was injected at day 0 (100 mg/kg) and day 2 (250 mg/kg), and human recombinant G-CSF treatment was begun on day 4 (Amgen, 250 μg/kg/day, every 12 hours, 8 divided doses, i.p., in 5% dextrose). A second cycle was administered eight weeks after graft and animals were sacrificed three weeks after the last injection of G-CSF (i.e., 11 weeks after graft). In other experiments, 2×10^5 PC-3luc cells were orthotopically injected into nu/nu Adrβ2^tm1Bkk/J+/+ Adrβ3^tm1Lowl/J+/+, nu/nu Adrβ2^tm1Bkk/J−/−, nu/nu Adrβ3^tm1Lowl/J−/− and nu/nu Adrβ2^tm1Bkk/J−/− Adrβ3^tm1Lowl/J−/−. In selected experiments, 2×10^6 LNCaP-luc cells were injected in nu/nu Adrβ2^tm1Bkk/J+/+ Adrβ3^tm1Lowl/J+/+ and nu/nu Adrβ2^tm1Bkk/J−/− Adrβ3^tm1Lowl/J−/− mice. For the transgenic model, one-, two- or five-month-old c-Myc mice were injected with 6OHDA or surgically sympathectomized according to protocols described above and sacrificed 30 days later.
To ascertain the role of sympathetic innervation in tumor initiation using a genetic model, the effect of chemical or surgical sympathectomy on prostate cancer in cMyc mice was evaluated. For this study, transgenic cMyc mice expressing human c-Myc under the ARR2/probasin promoter expressed specifically in the prostate (AAR2/Pbsn-MYC) were used. This transgenic model leads to the complete penetrance of mouse prostatic intraepithelial neoplasia (mPIN) from postnatal week 2, progressing to invasive adenocarcinomas between 3 to 6 months of age (FIG. 6e). To this end, mice were chemically sympathectomized one month prior to histological analyses.
Disease progression was monitored by bioluminescence scanner. […] Mice were sacrificed at week 10.

The test system of assay [2] is healthy prostate. The experiment in a line: Healthy (tumor-free) prostate: nerve density, epithelial cell proliferation, apoptosis, Chrm1 expression. It is filed as in vivo, mouse. As to the method: (§2) Upon sacrifice, mouse prostate tissues were immersed in OCT medium (Tissue Teck®). Five-micrometer frozen sections were stained with hematoxylin-eosin (H&E). For immunofluorescence, unstained prostate sections were fixed with acetone or methanol. For staining of nerves, fixed sections were incubated in H2O2 to quench endogenous peroxidase and non-specific binding was blocked with goat serum in bovine serum albumin (BSA) solution and the avidin/biotin blocking kit (Vector Laboratories, Burlingame, Calif.). Sections were incubated with a rabbit anti-TH antibody (Millipore, Billerica, Mass.), or anti-VAChT antibody (Phoenix Pharmaceuticals, Inc., Burlingame, Calif.), or anti-NF-L antibody (Millipore), or anti-NF-H antibody (Abcam, Cambridge, Mass.) and then with a secondary biotinylated goat anti-rabbit antibody (Vector Laboratories). Signal was amplified using the Vectastain Elite ABC Kit (Vector Laboratories) and visualized using the Tyramide Signal Amplification kit for TRITC (PerkinElmer, Boston, Mass.).
(§3) For proliferative cell quantification, sections were incubated with a rabbit polyclonal anti-Ki67 (Abcam) and then Alexafluor 568-conjugated goat anti-rabbit antibody (Molecular Probes, Carlsbad, Calif.).
For apoptotic cell quantification, prostate sections were fixed with 4% paraformaldehyde (PFA) and stained with the Mebstain Apoptosis Kit according to manufacturer's recommendations (MBL International, Woburn, Mass.). Basement membranes were stained with a rat polyclonal anti-α2laminin antibody (Abcam) followed by Alexafluor647-conjugated goat anti-rat antibody (Molecular Probes).
Gene expression levels were analyzed from RNA extracted, using the TRIzol solution (Invitrogen, Carlsbad, Calif.), from PC-3, DU145, LNCaP cell lines or prostates from Balb/c nu/nu mice by quantitative real-time PCR, as described previously (Mendez-Ferrer, Nature, 452:442-447 (2008)).

Assay [3] has as its system PC-3luc cells. The experiment in a line: PC-3luc cell proliferation / cytotoxicity in vitro (MTT). Format: cell-based, human. The note with it: G-CSF, 96 hours, three concentrations. How it is done:
A cell proliferation assay was performed on human PC-3 prostate tumor cells after 96 hours of treatment by G-CSF at three different concentrations by comparison with human leukemic cells (HL-60 and U937). Cell proliferation was quantified by a cell viability assay using MTT (3-[4,5-dimethylthiazole-2-yl]-2,5-diphenyltetrazolium bromide (Sigma). The percentage of viable cells was calculated by comparing the optical density (OD) of the treated samples with those incubated with vehicle. Methods were carried out as described by Magnon, et al., Cancer Res, 65, 4353-61 (2005); incorporated herein by reference in its entirety.

In assay [4] the test system is murine fetal neurons. The experiment in a line: Neurite outgrowth in fetal neuronal cultures. The note with it: G-CSF, cultivation for 6 days. Format: cell-based, mouse. How it is done:
To evaluate neurite growth, cultures were fixed for 10 minutes at −20° C. with 5% glacial acetic acid/95% ethanol and then incubated with an anti-phosphorylated NF-H antibody (Sigma, clone NE14) and a rabbit anti-microtubule-associated protein-2 antibody (Chemicon), followed by Alexafluor488-conjugated goat anti-mouse antibody and Alexafluor568-conjugated goat anti-rabbit antibody (Molecular probes). For G-CSFR staining, mouse fetal neurons in culture were fixed with methanol and then incubated with a rabbit anti-G-CSFR (Santa-Cruz biotechnology, Santa Cruz, Calif.) and Alexafluor568-conjugated goat anti-rabbit antibody (Molecular probes). Neurite outgrowth was analyzed objectively from 40 random fields (field area=0.6 mm^2) per growth condition using the “Neurite Outgrowth” module of Metamorph software (MDSAT).
Neuronal cultures were prepared from embryonic day 15 fetal neocortex as described in Dobrenis et al., J Neurosci. Res. 82(3):306-315 (2005), incorporated herein by reference. Briefly, after enzymatic and mechanical tissue dissociation, cells were plated at 2.5×10^4/cm^2 (day 0) and treated with 20 μg/ml 5-fluoro-2′ deoxyuridine and 50 μg/ml uridine at day 4 for 24 hours to eliminate glial growth. At day 1, cultures were maintained in serum-free medium and incubated with G-CSF at different concentrations (0, 500, 1000 ng/ml) until day 7.

The test system of assay [5] is PC-3luc cells. The experiment in a line: Xenogeneic orthotopic PC-3luc prostate tumor model in nude mice (bioluminescence, immunofluorescence). Format: in vivo, Balb/c nu/nu mice. How it is done:
The microenvironment of a developing tumor is important in cancer development and metastasis. A xenogeneic orthotopic model of prostate cancer was established to provide a minimally disruptive microenvironment for this cancer in live mice.
In vivo and ex vivo bioluminescence imaging was performed and analyzed using an IVIS imaging system 200 series (Xenogen, Caliper Life Sciences, Hopkinton, Mass.). Bioluminescent signal was induced by i.p. injection of D-luciferin (150 mg/kg in PBS) 8 minutes prior to in vivo imaging. For ex vivo imaging, D-luciferin (300 mg/kg) was injected 7 minutes prior to necropsy. Organs of interest were immersed in a solution of D-luciferin at 150 mg/ml.
as §2, §3, §1
A second cycle was administered at week four and mice were sacrificed one week later (five weeks after graft). For cholinergic experiments using the nu/nu Chrm1^tm1Stl+/+ and nu/nu Chrm1^tm1Stl−/− animals, mice were sacrificed at week six post-graft. For the survival study, grafted mice were treated as described hereinabove from week 4, every two weeks for up to 25 weeks or until death. Disease progression was monitored by bioluminescence scanner. […] One week later, mice received a second round of treatment and were then sacrificed at month four.

B1: G-CSF: human recombinant granulocyte-colony stimulating factor (Amgen), hematopoietic growth factor (protein, UniProt P09919 31-207, looked up)
Granulocyte …: TPLGPASSLPQSFLLKCLEQVRKIQGDGAALQEKLVSECATYKLCHPEELVLLGHSLGIPWAPLSSCPSQALQLAGCLSQLHSGLFLYQGLLQALEGISPELGPTLDTLQLDVADFATTIWQQMEELGMAPALQPTQGAMPAFASAFQRRAGGVLVASHLQSFLEVSYRVLRHLAQP
As to B1, in assay [1], the “frequency of mPIN” value is “modest, but significant, effect” and the “number of invasive cancer zones” value is given as “dramatically increased”. Also, the “proliferation of healthy epithelial cells (anti-Ki67 staining)” value in assay [2] (G-CSF treatment) was “led to proliferation”. Besides, in assay [2] (three weeks after G-CSF, vs PBS control), the “density of NF-L+ nerve fibers in healthy (tumor-free) prostate” value is recorded as “higher density”. Further, the “Chrm1 expression in the prostate gland” value in assay [2] (three weeks after last G-CSF injection, Q-PCR) was “tended to increase”. The “proliferation of PC-3luc tumor cells in vitro” value in assay [3] was “could not stimulate”. In assay [4], the “axonal outgrowth vs vehicle-treated controls” value is listed as “about 2 fold” and the dendrite outgrowth entry is on record as “unchanged”. In addition, in assay [5] (G-CSF 250 μg/kg/day, orthotopic PC-3luc), the “tumor cell proliferation in the primary tumors (Ki67 staining)” value is “significantly increased”. Also, in assay [5] (G-CSF after 6OHDA), the “TH+ fibers against 6OHDA-induced damage” value is “protected”, the “development of primary tumors initially sympathectomized with 6OHDA” value is on record as “rescued” and the “metastases in 6OHDA-lesioned animals” value was “did not induce”. Further, the “invasion of inguinal lymph nodes and metastases” value in assay [5] (G-CSF alone, bioluminescence, week 11) was “induced”. The “size of the primary tumor” value in assay [5] (G-CSF treatment) is “did not affect”. Also, the “infiltration of VAChT+ parasympathetic neo-nerves” value in assay [5] (immunofluorescence of tumors) is “selectively promoted”. For the same molecule, the “density of newly formed NF-L+ nerves in prostate tumors” value in assay [5] (vs PBS, 11 weeks) is given as “significantly higher densities”.
